According to paper PMC8580143:

What was measured:
[1] = molecular target: endogenous rat PP1γ (rat (endogenous in primary hippocampal neurons)) (UniProt P63088); test: proximity ligation; PLA in fixed primary rat hippocampal neurons with Tau7 and a PP1γ-specific antibody; puncta per area of Tau12 staining; n = 3; untransduced neurons for endogenous tau; parameters: unit not given here
[2] = molecular target: endogenous rat PP1 (detected with an antibody that recognizes all PP1 isoforms) (rat (endogenous in primary hippocampal neurons)) (UniProt P62138); test: proximity ligation; PLA in fixed primary rat hippocampal neurons (DIV 8) with Tau7 and a pan-PP1 antibody; puncta per area of Tau12 (human tau) staining; n = 3; untransduced neurons for endogenous tau; parameters: unit not given here
Chain of UniProt P62138 (P62138 whole entry, canonical isoform): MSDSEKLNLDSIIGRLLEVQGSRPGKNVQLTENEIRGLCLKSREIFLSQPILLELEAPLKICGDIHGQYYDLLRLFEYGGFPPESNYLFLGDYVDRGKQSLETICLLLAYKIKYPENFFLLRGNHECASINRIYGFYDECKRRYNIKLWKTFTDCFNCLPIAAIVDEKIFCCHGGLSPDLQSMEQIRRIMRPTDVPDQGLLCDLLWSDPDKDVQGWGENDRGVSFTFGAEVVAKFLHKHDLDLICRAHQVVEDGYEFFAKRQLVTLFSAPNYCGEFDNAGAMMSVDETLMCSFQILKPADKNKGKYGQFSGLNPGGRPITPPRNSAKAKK

Chain of UniProt P63088 (P63088 whole entry, canonical isoform): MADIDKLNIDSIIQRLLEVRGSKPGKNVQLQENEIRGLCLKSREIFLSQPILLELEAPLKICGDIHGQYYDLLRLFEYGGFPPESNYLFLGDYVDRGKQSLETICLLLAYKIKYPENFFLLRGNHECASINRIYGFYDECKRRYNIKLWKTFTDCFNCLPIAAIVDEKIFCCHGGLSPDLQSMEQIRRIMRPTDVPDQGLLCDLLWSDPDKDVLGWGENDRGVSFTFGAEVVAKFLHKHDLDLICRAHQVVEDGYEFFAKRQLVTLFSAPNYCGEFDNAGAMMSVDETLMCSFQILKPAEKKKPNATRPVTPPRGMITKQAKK

Row | Substance | PLA puncta per area of Tau12 staining [1] | PLA puncta per area of Tau12 staining [2]
1 | P301L mutant human tau (C-terminally FLAG-tagged) expressed by lentivirus in rat hippocampal neurons (natural protein) | 28 | 67.3
2 | R5L mutant human tau (C-terminally FLAG-tagged) expressed by lentivirus in rat hippocampal neurons (natural protein) | 16.2 | 31.3
3 | wild-type human tau (C-terminally FLAG-tagged) expressed by lentivirus in rat hippocampal neurons (natural protein) | 11.3 | 23.1
